This experiment has as its target Hd1 segment (aa112–337) between the zinc finger domain and the CCT domain (rice (Oryza sativa L.)) (UniProt Q9FDX8).
UniProt Q9FDX8, sequence (Q9FDX8 112-337): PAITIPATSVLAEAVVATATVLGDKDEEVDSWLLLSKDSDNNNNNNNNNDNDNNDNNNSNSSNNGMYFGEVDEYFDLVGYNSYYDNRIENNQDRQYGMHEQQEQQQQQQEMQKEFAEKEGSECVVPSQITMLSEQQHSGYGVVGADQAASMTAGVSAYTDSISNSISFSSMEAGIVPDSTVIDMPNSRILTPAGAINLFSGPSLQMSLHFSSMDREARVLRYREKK

Consider “Ghd7 (aa187–257) segment containing the CCT domain (from UniProt E5RQA1 187-257) (domain or fragment)”, for which the relative LUC activity activated by GAL4-Hd1^ZS (full-length CDS of Hd1 from ZS97) in rice protoplasts with increasing dosage of 35S:Ghd7-CFP (2, 4, 10 μg); decreased from 7.0 to 0.8 (relative LUC activity) turned out to be 7.

The record behind these values is publication PMC5511259.
